Measured values: the DeepSol protein solubility set

Experiment: soluble on expression in E. coli; label from the status in PepcDB or PDB records

| Sequence | soluble on expression in E. coli |
| --- | --- |
| MGSDKIHHHHHHMYSDLNEGVKPYRMTKSHKNIKQCDLLIAGGAAVGLTLAIALKQAAPELKINIVDAAPQEVIPVSNIRALALAAASIRMLKQLQCWEHIAPHAQPIHSMIITDAYTNDPVKPTLLTFEGDITPNEPFAAMVEHKELLNALKKRAKDLDIPFITNMRIVDFHQEDQHTTVTLSNKEIWQTKLLIAADGAHSKLREKAGLKKFSHSYTQTAIICTVEHEKPHHGQAIQHFLPAGPFALLPLKGNRSAIVWNEDHKTAQYYLKADALIFETEIEKRIGHRYGKLSWNGERQGFPLNLSLTRQCIKPRFALIGDAAHTIHPLAGQGLNLGLRDSAALAEVIIETARLGLDIGSLTALERYQSWRRFEIVRMALSNDWLNKLFSNDNLLLRTLRDVGLGIVNQTPKVKKYFIQEAAGLTPHAPRLLHGLPL | not soluble |
| MDLISGEADPSESRAAERPGTAPLQGLVTFNRLELNRILNLYGRMVAAGEWRDYAIDFLKDTAVFSIFRRASEVPIYRIVKDPRLARKQGAYSVIGASGQILRRGHELERVLLVIDRKLALV | not soluble |
| MRKSRDANPFKAMPNILYPDELMDKAYNRSEKIAGELRTTTRGLSTPKSKIIEDNKIRTTASVISDNLLKIVEKTPSIDNLDPFYREILEIMVGSDEFKKSLAAVQWASEIVKKLGTQYSRKVKKAPSPQATSIVRKEFIGRVSSVLKQIYPNMAFLGVARNKLKNIPTVKNLPSVVIAGYPNVGKSTLLRTLTDAEPEVNSYPFTTKGLNIGYTEEGIQIIDTPGVLDRPIYERNDIELHAVVAINYLSDMILFVIDPTEFCGFTMEEQFNLLQEIRKTFNVPILVALTKMDVDEIEGLDKLEEDLGEYEVLKVSSFKKEGIADLRERLLDILDEQGLMGLLEELEHHHHHH | soluble |
| MKGSTIGTETKECGKETDFCYNGTADISSFSKFQKAGCNTVICQFHANKCFEQNVSGQLLTFCCCNTDDLCNGGAVTDSGSLFDRGLSVLKGLVSAGKK | not soluble |
| MSQWYELQQLDSKFLEQVHQLYDDSFPMEIRQYLAQWLEKQDWEHAANDVSFATIRFHDLLSQLDDQYSRFSLENNFLLQHNIRKSKRNLQDNFQEDPIQMSMIIYSCLKEERKILENAQRFNQAQSGNIQSTVMLDKQKELDSKVRNVKDKVMCIEHEIKSLEDLQDEYDFKCKTLQNREHETNGVAKSDQKQEQLLLKKMYLMLDNKRKEVVHKIIELLNVTELTQNALINDELVEWKRRQQSACIGGPPNACLDQLQNWFTIVAESLQQVRQQLKKLEELEQKYTYEHDPITKNKQVLWDRTFSLFQQLIQSSFVVERQPCMPTHPQRPLVLKTGVQFTVKLRLLVKLQELNYNLKVKVLFDKDVNERNTVKGFRKFNILGTHTKVMNMEESTNGSLAAEFRHLQLKEQKNAGTRTNEGPLIVTEELHSLSFETQLCQPGLVIDLETTSLPVVVISNVSQLPSGWASILWYNMLVAEPRNLSFFLTPPCARWAQLSEVLSWQFSSVTKRGLNVDQLNMLGEKLLGPNASPDGLIPWTRFCKENINDKNFPFWLWIESILELIKKHLLPLWNDGCIMGFISKERERALLKDQQPGTFLLRFSESSREGAITFTWVERSQNGGEPDFHAVEPYTKKELSAVTFPDIIRNYKVMAAENIPENPLKYLYPNIDKDHAFGKYYSR | soluble |
| MGSDKIHHHHHHMNLATSERAQLATLLLEKGPNFPTLCGDWNTQELAAHLLIRESRPWIAAGMFLPGGSRIVADAMRKITQQPFEHVVAQWMKGPKWGYLGRYLDSVANRIEHFVHHEDVRRGETTVGQWQNLDLLPCNAKPRVLSERHSGELYDAMRWVAPLLLRRSACPVVIEPIGFPRLVVADAGVVSTRGDCVVHVRGDIGEVVLWILGRNQVDLFVDGPTHLLKKSSL | not soluble |
| GMSQTTVVNGVNVDQLMATIEQIKAKPEIAQFKFRATNQWMGGTHNQATIKDFYGACAEDDTRKPMVFDLDEPPVLLGENRGANPVEYLLVALSGCLTTSLVAHAAARGIALRGVKSRYEGDIDLRGFLGLSEEVPVGYREIRVFFSIDADLTDGQKEELIRMAQKYSPVYNTVAKPVPVAVLLDRG | soluble |
| MGSDKIHHHHHHSKDKKSTDTKQTETKKTAKTDGTMTDGTYKLEEKNFDDKGWKGFMSIEVKDGKITKANYDYKNKDGKLKSEDADYEKAMKDKVGTGPQEYLKQLSDSLVKGQSASSVEVVSGATHSSDAFINYANQLIQAAQKADTTTISINNLAKMEDGTYKLEEQNYAHGYRVVFSMDVKDGKITKSDYNYVDKDGKLKSDDADYEKNMKAKSGTGPKEYIPALNKSLVEKQDVAAVDTVSGATNSSNQFKIYAAQLQNAAQNGNTDTIKVYNLVEAE | not soluble |
| DAYIGVLIDDLVTKGTNEPYRLLTSRAEYRLLLRHDNADLRLTDMGYELGMISEERYARFNEKRQQIDAEIKRLSDIRIKPNEHTQAIIEQHGGSRLKDGILAIDLLRRPEMTYDIILEILEEEHQLNADVEEQVEIQTKYEGYINKSLQQVEKVKRMEEKKIPEDLDYSKIDSLATEAREKLSEVKPLNIAQASRISGVNPADISILLIYLEQG | not soluble |
| MIKKITISDLIRMGDEKEREWFMFHAEVERIFNDTEIVGIKYQATITYVIGELDEDVLNTVFESNWNKTAEVLKKHEIEVEDIKIDKNEKKVEIKLKTSGIVYREGLFEFEDIKELLKDVLARKIEEAWISVLQEHGYILEHHHHHH | soluble |
| MSRPRAKLTGNFPGCPVESALSFLDGKWKGVILYHLINEGTLRFNELRRHIPSVTQRMLTKQLRELEEAGLISRTVFPVVPPRVDYALTPLGETMRPVISALKSWGDAHVVCKNGEKYTRAPTVAEKAA | not soluble |
| GSHMKNSVSVDLPGSMKVLVSKSSNADGKYDLIATVDALELSGTSDKNNGSGVLEGVKADASKVKLTISDDLGQTTLEVFKSDGSTLVSKKVTSKDKSSTEEKFNEKGELSEKKITRADKSSTEEKFNEKGELSEKKITRADKSSTEEKFNEKGELSEKKITRADKSSTEEKFNEKGEVSEKIITRADGTRLEYTGIKSDGSGKAKEVLKGYVLEGTLTAEKTTLVVKEGTVTLSKNISKSGEVSVELNDTDSSAATKKTAAWNSGTSTLTITVNSKKTKDLVFTSSNTITVQQYDSNGTSLEGSAVEITKLDEIKNALK | soluble |
| MAHHHHHHMHTNTMEVVVKHMGAAFSVAVIPVLKDNYTYIIHDKTTNTMAAVDVSADTTPIVDYVERIRRSIDERGAGAMSFSTIFSTHKHWDHAGGNVVLPKALKAAGAFRIIGGVNDNISGVTQTVREGDRLSLGALQVEVLEAPCHTRGHVLYKVYHPQAEKDGVALFTGDTMFVGGIGAFFEGDAAHMCRALRKVYNLHHNATDKEEADRRTFVFPGHEYTVNFLQFARDTIPPAHPDATFIASQLERYKESVAQRKPTVPSTLAEEKRQNLFLRTCDESFVREMKHGDTAETLMQHLYDTCP | not soluble |
| MSLGAGQPLGGYAEDLEGRQADLPKYSRANVRIVFAAVFPESNVYQGGEGYPTPSSSRLLLLDQVKTYYALSSIHGVEIIESWRSAQEVLEAPRWRLGLLLHLEGADALADILDLELLHRLGFRSLGLTWNHDNRWAASCKTRRDYGLTQSGEDLVKKAAELGVIIDLAHASDKTVADAASASPKPVIVSHANFRWKVDSPRNVGEEAVEAVVSKGGVIGYSLISTLITRGRHPTLHDVASQMAEFVEVYGHRHLAIGTDYHGLLDIRPPTGLESIDRLPRLLEALADAGLSDRQIEAIAYGNIARVIREVLPGSEGHHHHHH | soluble |
| MIKHESSQPLRVAVAQCRIDWEDKHANLRRMERLAEETAGMADVLFFPEMMTTGFSMNVQALAEPFEEGETIMSLKRVTARHGLALSATMAVRENGKFYNRAYFVTPEGEVFHQDKRHLFRVGGEHEVMTPAQERRIFNYRGWKIFIIPCYDLRFPVWCTNTDLEYDLLVCMANWPEPRRAVWQTLLQARAMENYAYVCGINRVGEDGIGLRYTGDSAILSPRGEYLATCAEGEEKVLYHTLDKGAMQRFRDKFPAWMDMDSFVINYDTDLHP | not soluble |
| GSSGSSGGYFDAHALAMDYRSLGFRECLAEVARYLSIIEGLDASDPLRVRLVSHLNNYASQREASGPSSG | soluble |
